PMC9503459, “Antifungal Activity, Structural Stability, and Immunomodulatory Effects on Human Immune Cells of Defensin from the Lentil Lens culinaris” (Membranes, 2022)
Where “and” joins values, the source holds several entries; their conditions need not be identical. Identical values can stand only once. No end group written: not given here.

Key:
[1] = test system: pepsin, trypsin, α-chymotrypsin; assay: Simulated gastrointestinal digestion in vitro; format: in vitro ADME, porcine pepsin and trypsin, bovine α-chymotrypsin
Text: Digestive enzymes (porcine pepsin and trypsin, bovine α-chymotrypsin), model protein substrate bovine α-casein, and secondary anti-rabbit IgG polyclonal goat antibodies conjugated to HRP and 3,3′,5,5′-tetramethylbenzidine (TMB) substrates were purchased from Sigma-Aldrich (St. Louis, MO, USA). Synthetic lysophospholipids (lyso-palmitoyl phosphatidylcholine (LPPC), lyso-palmitoyl phosphatidylglycerol (LPPG)) were purchased from Avanti Polar Lipids (Alabaster, AL, USA).
Sensitivity of Lc-def to digestive enzymes was examined by simulation of its gastrointestinal digestion in vitro. Gastric digestion was performed for 2 h, using 50 ng of pepsin per 1 μg of preheated at 100 °C for 30 min and intact Lc-def in 0.1 M HCl, pH 2.0. For duodenal digestion, the pH of the mixture resulting from gastric digestion was adjusted to 8.0 by addition of ammonium bicarbonate. The obtained mixture was incubated for 24 h at 37 °C with 2.5 ng of trypsin and 10 ng of α-chymotrypsin per 1 μg of the defensin. The degree of proteolysis was monitored by SDS-PAGE and RP-HPLC. Gel analysis was performed using Gel Doc XR^+ imaging system (Bio-Rad, Hercules, CA, USA) and Image Lab Software v.6.1.0 (Bio-Rad, Hercules, CA, USA). Some independent experiments were performed in each case. The experiment with α-casein was carried out for comparison.

[2] = test system: human red blood cells (hRBC); assay: Hemolytic assay; format: cell-based; settings: 100 μM, 4% hRBC in PBS pH 7.2, 1.5 h, 37 °C, A405
Protocol: Hemolytic activity of Lc-def was studied using 96-well microplates. Fresh human red blood cells (hRBC) were washed three times with ice-cold PBS, pH 7.2. Serial two-fold dilutions of Lc-def and membrane-active peptide melittin from the venom of honeybees as positive control (final concentrations from 0.1 to 100 μM) were then added to hRBC in PBS (final concentration of 4% (v/v)). The suspension was incubated for 1.5 h at 37 °C. After, intact hRBC sedimentation aliquots of the supernatants containing released hemoglobin were transferred to 96-well microplates, and the absorbance at 405 nm was measured. hRBC in PBS or 0.1% Triton X-100 were employed as negative (control0) and positive (control100) controls, respectively. The percentage of hemolysis was calculated as: hemolysis(%) = ((Asample − Acontrol0)/(Acontrol100 − Acontrol0)) × 100%. Experiment was carried out twice in triplicate using the same blood.

[3] = CD spectroscopy, secondary structure at different pH and temperature; format: physicochemical
Protocol: Circular dichroism spectra were recorded at different temperatures using a J-810 spectropolarimeter (Jasco, Hachioji, Tokyo, Japan) in a 0.1 cm path length quartz cell (Hellma GmbH and Co. KG, Mullheim, Germany) in the 190–250 nm range 0.2 using solutions of Lc-def in 10 mM phosphate buffer, pH 7.4, or 150 mM sodium chloride, pH 2.5, simulated gastric fluid, at a concentration of 30 µM. Lysolipids were added at final concentration of 1 mM.

[4] = test system: clinical isolate of C. krusei (225/2); assay: Antifungal microdilution assay, C. krusei; format: cell-based, Candida krusei; settings: 24 h; for inhibition of the growth: C. krusei
Protocol: The clinical isolates of Candida albicans (v47a3), C. krusei (225/2) and C. glabrata (252/2) were collected from patients with human immunodeficiency virus (HIV) infection and provided by G.N. Gabrichevsky Research Institute for Epidemiology and Microbiology (Moscow, Russia). Strains stocks were kept at −70 ℃ in 10% nonfat milk with 10% glycerol.
Antifungal susceptibility tests were performed by the microdilution method using 96-well microplates. Yeast cells in stock were inoculated onto modified YPD (yeast extract 5 g/L, peptone 10 g/L, glucose 10 g/L) agar plates, and incubated for 24 h at 37 ℃. After replating, cells were cultured in modified YPD broth at 37 ℃ to optical density 1.0 at 540 nm. Further, yeast cells in modified YPD broth at concentration of 5 × 10^4 cells/mL were mixed with equal volumes of serial two-fold dilutions of the peptide in water which started at the highest peptide concentration of 200 µM. Final peptide concentrations in the wells were 100, 50, 25, 12.5, 6.25, 3.125, and 1.56 μM. Controls without defensin were also tested. Plates were incubated at 30 ℃ during 24 h. Yeast growth was estimated using inverted microscope as well as by measuring the optical density at 540 nm. Percentage of growth inhibition was defined as: growth inhibition (%) = ((Acontrol − Asample)/Acontrol) × 100%. All of the experiments were performed twice in triplicate. The t-test was performed to study the statistical difference (p-value) between the means of controls and samples with different peptide concentrations. The experiment with lentil Lens culinaris lipid transfer protein Lc-LTP2 was carried out for comparison.

[5] = far-UV CD, 30 µM, 10 mM phosphate buffer pH 7.4
[6] = far-UV CD, 30 µM, 150 mM sodium chloride pH 2.5, simulated gastric fluid
[7] = pH 7.4, 20 °C end (after heating and cooling)

## Lc-def: defensin from lentil Lens culinaris seeds (UniProt:B3F051), recombinant, overexpressed in Escherichia coli (KTCENLSDSFKGPCIPDGNCNKHCKEKEHLLSGRCRDDFRCWCTRNC; disulfide (positions not given here); ends not checked; also: disulfide bonds present, pairing not given here; UniProt B3F051 28-74, looked up)
[1]
  degradation after gastrointestinal digestion: approximately 30%
[2]
  hemolysis of erythrocytes: did not cause hemolysis
[3]; +LPPC 1 mM, pH 7.4, 20 °C
  Random, %: 31%
  α-Helix, %: 16.4%
  β-Sheet, %: 30.3%
  β-Turn, %: 22.3%
[3]; +LPPC 1 mM, pH 7.4, 20 °C end
  Random, %: 32.8%
  α-Helix, %: 5.8%
  β-Sheet, %: 39.9%
  β-Turn, %: 21.5%
[3]; +LPPC 1 mM, pH 7.4, 98 °C
  Random, %: 33.7%
  α-Helix, %: 8.1%
  β-Sheet, %: 35.7%
  β-Turn, %: 22.5%
[3]; +LPPG 1 mM, pH 7.4, 20 °C
  Random, %: 33%
  α-Helix, %: 23.6%
  β-Sheet, %: 21%
  β-Turn, %: 22.4%
[3]; +LPPG 1 mM, pH 7.4, 20 °C end
  Random, %: 32.9%
  α-Helix, %: 21.7%
  β-Sheet, %: 23.1%
  β-Turn, %: 22.2%
[3]; +LPPG 1 mM, pH 7.4, 98 °C
  Random, %: 35%
  α-Helix, %: 18.5%
  β-Sheet, %: 24.1%
  β-Turn, %: 22.4%
[3]; [5]
  Random, %: 33.9%
  α-Helix, %: 15.5%
  β-Sheet, %: 28.5%
  β-Turn, %: 22.2%
[3]; [6]
  Random, %: 35.8%
  α-Helix, %: 13.9%
  β-Sheet, %: 25.4%
  β-Turn, %: 24.8%
[3]; pH 7.4, 20 °C (before heating)
  Random, %: 34%
  α-Helix, %: 15.9%
  β-Sheet, %: 27.7%
  β-Turn, %: 22.3%
[3]; [7]
  Random, %: 35.9%
  α-Helix, %: 9%
  β-Sheet, %: 32.1%
  β-Turn, %: 22.9%
[3]; pH 7.4, 98 °C
  Random, %: 35.3%
  α-Helix, %: 13.3%
  β-Sheet, %: 29.6%
  β-Turn, %: 21.8%
[4]; C. krusei clinical isolate, microdilution, modified YPD, 30 °C, OD540, twice in triplicate, read-out: concentration causing 50% growth inhibition
  IC50: 25 to 50 µM and 25 µM
[4]; 50 μM peptide
  inhibition of the growth: ~90%
[4]; 100 μM peptide
  inhibition of the growth: < 100%
